Experimental data reported in the supplement of paper PMC10126150.
± gives the standard deviation of the averaged measurements.

Tested on: ATP
Assay: switch fluorescence ratio, 500 uM ATP over buffer (Cy3 cluster intensity, sum of 5 cycles each) (fold (ratio)); higher = stronger signal-on switching upon ATP binding; sequences stand for … in TCGTCGGCAGCGTCAGATGTGTATAAGAGACAGTTTTTTTTTTTTTTTTTTTTTTTTT…TC
Conditions: aptamer strand: ATP DNA aptamer (quencher-CACCTGGGGGAGTATTGCGGAGGAAGG + anchor), 100 nM annealed; ATP concentration: 500 uM
How it was run: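 Clusters with intensities outside 100-1000 RFU were excluded. The remaining Cy3-labelled switching-strand clusters on a modified Illumina MiSeq flow-cell had been annealed to 100 nM quencher-labelled ATP aptamer and imaged in selection buffer, then after 15 min with 500 uM ATP at 22 °C, for five cycles separated by NaOH stripping and re-annealing. The fluorescence ratio, averaged per switch-domain sequence, is each cluster's summed target-cycle Cy3 intensity over its summed buffer-cycle Cy3 intensity.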
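Note: ATP exposure 15 min at 22 °C before imaging.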

Sequence	switch fluorescence ratio
GTAGAAAGTT	0.984 ± 0.0028
GTAGAGAACT	1 ± 0.021
GTAGCTCCTG	0.995 ± 0.056
GTAGGAATGT	1.03 ± 0.036
GTAGGACCTA	1.01 ± 0.018
GTAGGCAAAT	1.029 ± 0.003
GTAGGCAAGA	1.03 ± 0.071
GTAGGGAGGG	0.987 ± 0.013
GTAGGGCATG	0.96 ± 0.026
GTAGGGGCCC	1.02 ± 0.032
GTAGGGGGCG	1.01 ± 0.017
GTAGGGGGGA	0.987 ± 0.04
GTAGGGTGCT	1.042 ± 0.0064
GTAGTACAAG	0.986 ± 0.026
GTAGTAGGGA	1.01 ± 0.025
GTAGTAGGGT	1.01 ± 0.035
GTAGTCACGA	1.01 ± 0.048
GTAGTGAGGA	1.02 ± 0.029
GTAGTGAGGG	0.982 ± 0.037
GTAGTGCCAG	1.02 ± 0.042
GTAGTTTTGA	0.981 ± 0.018
GTATAAGAGG	0.991 ± 0.019
GTATAAGGAT	1.03 ± 0.019
GTATACGCAG	1.02 ± 0.026
GTATACGGCA	1.01 ± 0.022

Sequence	switch fluorescence ratio
GTATAGGGAA	1.004 ± 0.0071
GTATCCCCCG	1.03 ± 0.041
GTATCCCGTG	0.977 ± 0.018
GTATCGAGGA	0.963 ± 0.047
GTATCTGATG	1.004 ± 0.0027
GTATGACGTA	0.968 ± 0.037
GTATGAGTTG	1.02 ± 0.027
GTATGCGGAG	0.996 ± 0.02
GTATGCGGGG	0.996 ± 0.02
GTATGCTAGC	1.004 ± 0.0086
GTATGGATGT	1.007 ± 0.0043
GTATGGCAGG	1.01 ± 0.018
GTATGGGCGT	1.03 ± 0.018
GTATGTAGTA	0.985 ± 0.0098
GTATGTCGAG	0.988 ± 0.014
GTATGTCGTT	0.968 ± 0.034
GTATGTGTGC	0.96 ± 0.03
GTATTAAGGG	1.02 ± 0.035
GTATTAGCAG	1.03 ± 0.026
GTATTCAAGA	1 ± 0.043
GTATTCGCAA	4.73 ± 0.9
GTATTCGGGA	0.963 ± 0.029
GTATTGAGAT	0.973 ± 0.063
GTATTGATTT	0.9769 ± 0.0055
GTATTGGGCT	0.98036 ± 0.00097

Sequence	switch fluorescence ratio
GTATTTAAAT	0.9855 ± 0.0018
GTATTTACTC	1.04 ± 0.034
GTATTTCGGT	0.972 ± 0.031
GTATTTTCGC	1.02 ± 0.017
GTATTTTGCT	0.979 ± 0.031
GTCAAAAAGT	0.985 ± 0.028
GTCAAAAATT	0.987 ± 0.01
GTCAAAGCCA	1.02 ± 0.019
GTCAACTGAG	1.05 ± 0.04
GTCAATTGCA	0.999 ± 0.026
GTCACGTATT	1.16 ± 0.0099
GTCACTAGTG	1.028 ± 0.0026
GTCAGAGTCT	1.05 ± 0.021
GTCAGAGTGG	0.991 ± 0.024
GTCAGCCTTT	0.983 ± 0.025
GTCAGCTAAC	1.48 ± 0.053
GTCAGCTTGC	1 ± 0.025
GTCAGGAATT	0.9981 ± 0.0062
GTCAGTGCTA	1.0169 ± 0.001
GTCAGTGGCT	0.998 ± 0.018
GTCAGTGGGC	0.998 ± 0.0052
GTCATAACAT	1.018 ± 0.0065
GTCATAGGTG	1.28 ± 0.087
GTCATTGGAG	1.008 ± 0.0079
GTCCTTGGTC	0.982 ± 0.019

Sequence	switch fluorescence ratio
GTCGAGGGGG	0.997 ± 0.05
GTCGATTAGT	0.944 ± 0.033
GTCGATTGGG	1.001 ± 0.0012
GTCGGACTAG	1 ± 0.051
GTCGGAGTCA	1 ± 0.034
GTCGGCGTAG	1.03 ± 0.036
GTCGGCGTTG	0.9916 ± 0.0027
GTCGGGAGCC	0.967 ± 0.018
GTCGGGCCAG	0.985 ± 0.025
GTCGGGGAAG	0.958 ± 0.013
GTCGGGGGG	1.01 ± 0.026
GTCGGGGGTA	0.992 ± 0.039
GTCGTATTGG	1.03 ± 0.03
GTCGTATTTG	0.9822 ± 0.0057
GTCGTCCGGG	0.986 ± 0.028
GTCGTCTTAC	1.05 ± 0.045
GTCGTGGCGA	1.01 ± 0.02
GTCGTGGTTT	0.982 ± 0.037
GTCGTTAGGG	0.963 ± 0.051
GTCGTTGTTC	1.03 ± 0.027
GTCGTTTGCG	1.012 ± 0.0048
GTCGTTTTGG	0.99 ± 0.029
GTCTAACTGT	0.994 ± 0.029
GTCTAAGGAT	0.995 ± 0.042
GTCTATATTT	1 ± 0.044
